Substitutions are numbered along the chain they refer to.
B1: 9A8.12-SL-9E8.4E DVD-Ig (PR-1577166) (bispecific antibody, human IgG1, kappa, L234A L235A)
heavy: EVQLVQSGAEVKKPGASVKVSCKASGYTFTNYGMYWVRQAPGQGLEWMGWINTETGKPIYADDFKGRVTMTTDTSTSTAYMELRSLRSDDTAVYYCARVDYDGSFWFAYWGQGTLVTVSSASTKGPEVTLRESGPALVKPTQTLTLTCTFSGFSLSTYGMGVGWIRQPPGKALEWLANIWWDDDKYYNPSLKNRLTISKDTSKNQVVLTMTNMDPVDTATYYCARIESIGTTYSFDYWGQGTMVTVSSASTKGPSVFPLAPSSKSTSGGTAALGCLVKDYFPEPVTVSWNSGALTSGVHTFPAVLQSSGLYSLSSVVTVPSSSLGTQTYICNVNHKPSNTKVDKKVEPKSCDKTHTCPPCPAPEAAGGPSVFLFPPKPKDTLMISRTPEVTCVVVDVSHEDPEVKFNWYVDGVEVHNAKTKPREEQYNSTYRVVSVLTVLHQDWLNGKEYKCKVSNKALPAPIEKTISKAKGQPREPQVYTLPPSREEMTKNQVSLTCLVKGFYPSDIAVEWESNGQPENNYKTTPPVLDSDGSFFLYSKLTVDKSRWQQGNVFSCSVMHEALHNAYTQKSLSLSPGK
light: DTQLTQSPSSLSASVGDRVTITCRASESVSTVIHWYQQKPGKQPKLLIHGASNLESGVPSRFSGSGSGTDFTLTISSLQPEDFATYFCQQHWNDPPTFGQGTKLEIKRTVAAPSVFIFPPEFVLTQSPGTLSLSPGERATLSCERSSGDIGESYVSWYQQKPGQAPRLVIYADDQRPSGIPDRFSGSGSGTDFTLTISRLEPEDFAVYYCQSYDINIDIVFGGGTKVEIKRTVAAPSVFIFPPSDEQLKSGTASVVCLLNNFYPREAKVQWKVDNALQSGNSQESVTEQDSKDSTYSLSSTLTLSKADYEKHKVYACEVTHQGLSSPVTKSFNRGEC
B2: CODV008 cross-over DVD-Ig (PR-1565086) (bispecific antibody, human IgG1, kappa, L234A L235A)
heavy: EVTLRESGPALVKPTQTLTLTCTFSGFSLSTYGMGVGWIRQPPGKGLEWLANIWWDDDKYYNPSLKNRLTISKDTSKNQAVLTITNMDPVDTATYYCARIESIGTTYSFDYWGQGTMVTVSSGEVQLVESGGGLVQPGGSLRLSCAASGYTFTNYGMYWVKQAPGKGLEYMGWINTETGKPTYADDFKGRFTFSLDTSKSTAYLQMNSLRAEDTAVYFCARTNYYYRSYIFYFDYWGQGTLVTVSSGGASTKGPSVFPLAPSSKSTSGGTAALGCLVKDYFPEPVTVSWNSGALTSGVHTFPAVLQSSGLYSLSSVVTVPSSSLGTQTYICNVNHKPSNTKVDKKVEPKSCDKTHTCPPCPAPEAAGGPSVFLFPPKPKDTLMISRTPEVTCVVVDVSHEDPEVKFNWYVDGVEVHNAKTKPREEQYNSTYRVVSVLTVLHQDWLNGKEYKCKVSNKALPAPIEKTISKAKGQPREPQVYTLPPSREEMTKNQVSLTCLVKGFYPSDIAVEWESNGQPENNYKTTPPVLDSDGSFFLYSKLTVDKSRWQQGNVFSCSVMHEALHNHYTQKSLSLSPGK
light: DTQLTQSPSSLSASVGDRVTISCRASESVSTHMHWYQQKPGKAPKLLIYGASNLESGVPSRFSGSGSGTDFTLTISSLQPEDFATYFCQQSWNDPFTFGQGTKVEIKGGGSGGGDFQLTQSPSSLSASVGDRVTITCERSSGDIGDSYVSWYQQKPGKAPKNVIYADDQRPSGVPSRFSGSGSGNSASLTISSLQPEDFATYFCQSYDINIDIVFGQGTKVEIKGGGSGRTVAAPSVFIFPPSDEQLKSGTASVVCLLNNFYPREAKVQWKVDNALQSGNSQESVTEQDSKDSTYSLSSTLTLSKADYEKHKVYACEVTHQGLSSPVTKSFNRGEC
B3: 4G8.3-LS-9E8.4 (g) DVD-Ig (PR-1572106) (bispecific antibody, human IgG1, kappa, L234A L235A)
heavy: EVQLVQSGSELKKPGASVKVSCKASGYTFTNYGMYWVRQAPGQGLEWMGWINTETGKPTYADDFKGRFVFSLDTSVSTAYLQISSLKAEDTAVYYCARTNYYYRSYIFYFDYWGQGTMVTVSSASTKGPSVFPLAPEVTLRESGPALVKPTQTLTLTCTFSGFSLSTYGMGVGWIRQPPGKALEWLANIWWDDDKYYNPSLKNRLTISKDTSKNQVVLTMTNMDPVDTATYYCARIESIGTTYSFDYWGQGTMVTVSSASTKGPSVFPLAPSSKSTSGGTAALGCLVKDYFPEPVTVSWNSGALTSGVHTFPAVLQSSGLYSLSSVVTVPSSSLGTQTYICNVNHKPSNTKVDKKVEPKSCDKTHTCPPCPAPEAAGGPSVFLFPPKPKDTLMISRTPEVTCVVVDVSHEDPEVKFNWYVDGVEVHNAKTKPREEQYNSTYRVVSVLTVLHQDWLNGKEYKCKVSNKALPAPIEKTISKAKGQPREPQVYTLPPSREEMTKNQVSLTCLVKGFYPSDIAVEWESNGQPENNYKTTPPVLDSDGSFFLYSKLTVDKSRWQQGNVFSCSVMHEALHNAYTQKSLSLSPGK
light: DTVLTQSPATLSLSPGERATLSCRASESVSTHMHWYQQKPGQAPRLLIYGASNLESGVPARFSGSGSGTDFTLTISSLEPEDFAVYFCQQSWNDPFTFGQGTKLEIKRTVAAPEFVLTQSPGTLSLSPGERATLSCERSSGDIGDSYVSWYQQKPGQAPRLVIYADDQRPSGIPDRFSGSGSGTDFTLTISRLEPEDFAVYYCQSYDINIDIVFGGGTKVEIKRTVAAPSVFIFPPSDEQLKSGTASVVCLLNNFYPREAKVQWKVDNALQSGNSQESVTEQDSKDSTYSLSSTLTLSKADYEKHKVYACEVTHQGLSSPVTKSFNRGEC
B4: 4G8.3-LS-9E8.4E DVD-Ig (PR-1575835) (bispecific antibody, human IgG1, kappa, L234A L235A)
heavy: B3 heavy
light: B3 light with D145E
B5: 9A8.12-GS-9E8.4E DVD-Ig (PR-1577165) (bispecific antibody, human IgG1, kappa, L234A L235A)
heavy: EVQLVQSGAEVKKPGASVKVSCKASGYTFTNYGMYWVRQAPGQGLEWMGWINTETGKPIYADDFKGRVTMTTDTSTSTAYMELRSLRSDDTAVYYCARVDYDGSFWFAYWGQGTLVTVSSGGGGSGGGGSEVTLRESGPALVKPTQTLTLTCTFSGFSLSTYGMGVGWIRQPPGKALEWLANIWWDDDKYYNPSLKNRLTISKDTSKNQVVLTMTNMDPVDTATYYCARIESIGTTYSFDYWGQGTMVTVSSASTKGPSVFPLAPSSKSTSGGTAALGCLVKDYFPEPVTVSWNSGALTSGVHTFPAVLQSSGLYSLSSVVTVPSSSLGTQTYICNVNHKPSNTKVDKKVEPKSCDKTHTCPPCPAPEAAGGPSVFLFPPKPKDTLMISRTPEVTCVVVDVSHEDPEVKFNWYVDGVEVHNAKTKPREEQYNSTYRVVSVLTVLHQDWLNGKEYKCKVSNKALPAPIEKTISKAKGQPREPQVYTLPPSREEMTKNQVSLTCLVKGFYPSDIAVEWESNGQPENNYKTTPPVLDSDGSFFLYSKLTVDKSRWQQGNVFSCSVMHEALHNAYTQKSLSLSPGK
light: DTQLTQSPSSLSASVGDRVTITCRASESVSTVIHWYQQKPGKQPKLLIHGASNLESGVPSRFSGSGSGTDFTLTISSLQPEDFATYFCQQHWNDPPTFGQGTKLEIKRGGSGGGGSGEFVLTQSPGTLSLSPGERATLSCERSSGDIGESYVSWYQQKPGQAPRLVIYADDQRPSGIPDRFSGSGSGTDFTLTISRLEPEDFAVYYCQSYDINIDIVFGGGTKVEIKRTVAAPSVFIFPPSDEQLKSGTASVVCLLNNFYPREAKVQWKVDNALQSGNSQESVTEQDSKDSTYSLSSTLTLSKADYEKHKVYACEVTHQGLSSPVTKSFNRGEC
B6: 4G8.3-GS(11)-9E8.4 (g) DVD-Ig (PR-1572103) (bispecific antibody, human IgG1, kappa, L234A L235A)
heavy: EVQLVQSGSELKKPGASVKVSCKASGYTFTNYGMYWVRQAPGQGLEWMGWINTETGKPTYADDFKGRFVFSLDTSVSTAYLQISSLKAEDTAVYYCARTNYYYRSYIFYFDYWGQGTMVTVSSGGGGSGGGGSEVTLRESGPALVKPTQTLTLTCTFSGFSLSTYGMGVGWIRQPPGKALEWLANIWWDDDKYYNPSLKNRLTISKDTSKNQVVLTMTNMDPVDTATYYCARIESIGTTYSFDYWGQGTMVTVSSASTKGPSVFPLAPSSKSTSGGTAALGCLVKDYFPEPVTVSWNSGALTSGVHTFPAVLQSSGLYSLSSVVTVPSSSLGTQTYICNVNHKPSNTKVDKKVEPKSCDKTHTCPPCPAPEAAGGPSVFLFPPKPKDTLMISRTPEVTCVVVDVSHEDPEVKFNWYVDGVEVHNAKTKPREEQYNSTYRVVSVLTVLHQDWLNGKEYKCKVSNKALPAPIEKTISKAKGQPREPQVYTLPPSREEMTKNQVSLTCLVKGFYPSDIAVEWESNGQPENNYKTTPPVLDSDGSFFLYSKLTVDKSRWQQGNVFSCSVMHEALHNAYTQKSLSLSPGK
light: DTVLTQSPATLSLSPGERATLSCRASESVSTHMHWYQQKPGQAPRLLIYGASNLESGVPARFSGSGSGTDFTLTISSLEPEDFAVYFCQQSWNDPFTFGQGTKLEIKRGGSGGGGSGGEFVLTQSPGTLSLSPGERATLSCERSSGDIGDSYVSWYQQKPGQAPRLVIYADDQRPSGIPDRFSGSGSGTDFTLTISRLEPEDFAVYYCQSYDINIDIVFGGGTKVEIKRTVAAPSVFIFPPSDEQLKSGTASVVCLLNNFYPREAKVQWKVDNALQSGNSQESVTEQDSKDSTYSLSSTLTLSKADYEKHKVYACEVTHQGLSSPVTKSFNRGEC
B7: 4G8.3-GS(noR)-9E8.4 (g) DVD-Ig (PR-1572104) (bispecific antibody, human IgG1, kappa, L234A L235A)
heavy: B6 heavy
light: DTVLTQSPATLSLSPGERATLSCRASESVSTHMHWYQQKPGQAPRLLIYGASNLESGVPARFSGSGSGTDFTLTISSLEPEDFAVYFCQQSWNDPFTFGQGTKLEIKGGSGGGGSGGEFVLTQSPGTLSLSPGERATLSCERSSGDIGDSYVSWYQQKPGQAPRLVIYADDQRPSGIPDRFSGSGSGTDFTLTISRLEPEDFAVYYCQSYDINIDIVFGGGTKVEIKRTVAAPSVFIFPPSDEQLKSGTASVVCLLNNFYPREAKVQWKVDNALQSGNSQESVTEQDSKDSTYSLSSTLTLSKADYEKHKVYACEVTHQGLSSPVTKSFNRGEC
B8: 9A8.12-LS-9E8.4E DVD-Ig (PR-1577547) (bispecific antibody, human IgG1, kappa, L234A L235A)
heavy: EVQLVQSGAEVKKPGASVKVSCKASGYTFTNYGMYWVRQAPGQGLEWMGWINTETGKPIYADDFKGRVTMTTDTSTSTAYMELRSLRSDDTAVYYCARVDYDGSFWFAYWGQGTLVTVSSASTKGPSVFPLAPEVTLRESGPALVKPTQTLTLTCTFSGFSLSTYGMGVGWIRQPPGKALEWLANIWWDDDKYYNPSLKNRLTISKDTSKNQVVLTMTNMDPVDTATYYCARIESIGTTYSFDYWGQGTMVTVSSASTKGPSVFPLAPSSKSTSGGTAALGCLVKDYFPEPVTVSWNSGALTSGVHTFPAVLQSSGLYSLSSVVTVPSSSLGTQTYICNVNHKPSNTKVDKKVEPKSCDKTHTCPPCPAPEAAGGPSVFLFPPKPKDTLMISRTPEVTCVVVDVSHEDPEVKFNWYVDGVEVHNAKTKPREEQYNSTYRVVSVLTVLHQDWLNGKEYKCKVSNKALPAPIEKTISKAKGQPREPQVYTLPPSREEMTKNQVSLTCLVKGFYPSDIAVEWESNGQPENNYKTTPPVLDSDGSFFLYSKLTVDKSRWQQGNVFSCSVMHEALHNAYTQKSLSLSPGK
light: DTQLTQSPSSLSASVGDRVTITCRASESVSTVIHWYQQKPGKQPKLLIHGASNLESGVPSRFSGSGSGTDFTLTISSLQPEDFATYFCQQHWNDPPTFGQGTKLEIKRTVAAPEFVLTQSPGTLSLSPGERATLSCERSSGDIGESYVSWYQQKPGQAPRLVIYADDQRPSGIPDRFSGSGSGTDFTLTISRLEPEDFAVYYCQSYDINIDIVFGGGTKVEIKRTVAAPSVFIFPPSDEQLKSGTASVVCLLNNFYPREAKVQWKVDNALQSGNSQESVTEQDSKDSTYSLSSTLTLSKADYEKHKVYACEVTHQGLSSPVTKSFNRGEC

molecular target: recombinant human PDGF-BB (human, UniProt P01127 82-190); experiment: cell-based or functional assay
Sequence (P01127 82-190 limits assumed): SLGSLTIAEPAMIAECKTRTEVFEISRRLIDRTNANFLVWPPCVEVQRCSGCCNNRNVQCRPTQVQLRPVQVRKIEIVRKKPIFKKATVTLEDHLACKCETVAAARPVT

| Binder | NIH-3T3 hPDGF-BB Potency IC50 [nM] |
| --- | --- |
| B1 | 0.148 |
| B2 | > 5 |
| B3 | 0.109 |
| B4 | 0.176 |
| B5 | 0.204 |
| B6 | 0.298 |
| B7 | 0.095 |
| B8 | 0.133 |

From patent publication US20170015742A1 (published 2017)
